Laboratory results as given in patent publication US20040259122A1 (MICHIGAN STATE UNIVERSITY, published 2004).

Tests used:
Test in all cases: yeast two-hybrid, growth in the presence of 3-AT
[1] = target: T1, Fcp1 (activation domain fusion prey) (UniProt Q03254 1-732)
T1 construct: not shown: not described
T1 sequence (looked up): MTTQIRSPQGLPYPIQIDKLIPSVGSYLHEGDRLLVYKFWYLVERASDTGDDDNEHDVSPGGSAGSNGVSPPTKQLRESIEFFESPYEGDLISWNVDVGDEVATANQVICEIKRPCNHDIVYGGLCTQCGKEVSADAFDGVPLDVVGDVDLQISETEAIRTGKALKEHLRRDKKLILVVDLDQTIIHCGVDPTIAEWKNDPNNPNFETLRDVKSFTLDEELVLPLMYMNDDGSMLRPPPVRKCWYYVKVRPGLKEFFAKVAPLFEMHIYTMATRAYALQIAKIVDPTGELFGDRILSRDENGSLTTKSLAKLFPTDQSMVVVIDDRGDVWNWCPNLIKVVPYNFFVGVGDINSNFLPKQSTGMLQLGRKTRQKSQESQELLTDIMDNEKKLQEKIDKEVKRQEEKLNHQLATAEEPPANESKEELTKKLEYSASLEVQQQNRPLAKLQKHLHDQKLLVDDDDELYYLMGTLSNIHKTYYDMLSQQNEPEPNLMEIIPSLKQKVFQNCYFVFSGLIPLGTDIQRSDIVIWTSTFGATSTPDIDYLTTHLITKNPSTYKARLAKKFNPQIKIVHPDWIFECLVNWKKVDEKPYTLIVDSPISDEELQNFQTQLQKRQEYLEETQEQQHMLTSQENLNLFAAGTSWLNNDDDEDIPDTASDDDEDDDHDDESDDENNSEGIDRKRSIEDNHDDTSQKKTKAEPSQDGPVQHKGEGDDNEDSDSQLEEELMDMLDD
Protocol: (§1) Identification of proteins that interact specifically with the phosphorylated CTD. […] Proteins that interact specifically with the CTD-Kin28 (wildtype) but neither of the other two baits are considered phosphorylated CTD-interacting proteins. Yeast strains containing one of the three baits and a variety of preys (activation domain fusion proteins) were tested for their ability to grow in the presence of different concentration of 3-AT. The ability to grow in such medium indicates stable interactions between the bait(s) and the prey(s). The following proteins (numbered 1-7) are considered phosphorylated CTD-interacting proteins: Fcp1 (a phosphatase known to act on phosphorylated CTD), Ssn8 (or Srb11, a component of the RNA polymerase II holoenzyme), Tfb3 (a component of the RNA polymerase II holoenzyme), Whi2 (a protein involved in cellular growth and a component of a protein phosphatase complex containing the Psr1 catalytic subunit), and three novel proteins (YMR181c, YPL229w, and YDR428c) whose functional links to CTD phosphorylation are novel. In addition, previously known (i.e. Ccl1 and Pcl10) and unknown (YDL100c) Kin28-interacting proteins were also identified in this screen (A-C). Several putative phosphorylated CTD interacting proteins are not labeled due to the current lack of the sequence information.

[2] = target: T2, Ssn8 (activation domain fusion prey) (UniProt P47821 1-323)
T2 construct: also called Srb11; not shown: not described
T2 sequence (looked up): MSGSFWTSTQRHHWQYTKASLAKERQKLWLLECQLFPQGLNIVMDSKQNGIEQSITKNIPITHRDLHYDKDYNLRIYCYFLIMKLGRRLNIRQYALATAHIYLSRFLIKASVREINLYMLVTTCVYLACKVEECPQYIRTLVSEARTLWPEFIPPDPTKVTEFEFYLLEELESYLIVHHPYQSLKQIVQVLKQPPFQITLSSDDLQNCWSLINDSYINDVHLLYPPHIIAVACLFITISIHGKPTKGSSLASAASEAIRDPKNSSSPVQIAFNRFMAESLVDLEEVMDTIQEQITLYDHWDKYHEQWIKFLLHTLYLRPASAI
Protocol: as §1

[3] = target: T3, Tfb3 (activation domain fusion prey) (UniProt Q03290 1-321)
T3 construct: not shown: not described
T3 sequence (looked up): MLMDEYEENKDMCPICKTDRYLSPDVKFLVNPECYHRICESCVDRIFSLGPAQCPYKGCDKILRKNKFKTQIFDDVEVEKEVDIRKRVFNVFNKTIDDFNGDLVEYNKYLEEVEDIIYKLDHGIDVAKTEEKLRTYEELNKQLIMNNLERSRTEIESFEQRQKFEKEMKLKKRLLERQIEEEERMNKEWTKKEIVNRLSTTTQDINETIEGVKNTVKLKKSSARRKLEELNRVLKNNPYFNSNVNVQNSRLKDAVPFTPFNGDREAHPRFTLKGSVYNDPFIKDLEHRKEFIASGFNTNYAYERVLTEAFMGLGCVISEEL
Protocol: as §1

[4] = target: T4, Whi2 (activation domain fusion prey) (UniProt P12611 1-486)
T4 construct: not shown: not described
T4 sequence (looked up): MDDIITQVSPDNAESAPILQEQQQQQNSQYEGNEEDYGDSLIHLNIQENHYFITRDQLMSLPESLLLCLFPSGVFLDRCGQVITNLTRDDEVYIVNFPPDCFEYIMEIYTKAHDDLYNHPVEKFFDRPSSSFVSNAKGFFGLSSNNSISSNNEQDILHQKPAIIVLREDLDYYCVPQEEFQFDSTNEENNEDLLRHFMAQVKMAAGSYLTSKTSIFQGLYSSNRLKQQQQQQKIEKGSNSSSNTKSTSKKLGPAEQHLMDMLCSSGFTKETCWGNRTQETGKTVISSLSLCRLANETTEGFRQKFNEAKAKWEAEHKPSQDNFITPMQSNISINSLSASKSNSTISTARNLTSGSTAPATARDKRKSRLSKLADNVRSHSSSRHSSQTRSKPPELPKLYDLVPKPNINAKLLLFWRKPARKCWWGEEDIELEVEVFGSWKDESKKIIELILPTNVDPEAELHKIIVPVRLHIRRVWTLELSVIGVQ
Protocol: as §1

[5] = target: T5, YDR428c (activation domain fusion prey) (UniProt Q04066 1-261)
T5 construct: not shown: not described
T5 sequence (looked up): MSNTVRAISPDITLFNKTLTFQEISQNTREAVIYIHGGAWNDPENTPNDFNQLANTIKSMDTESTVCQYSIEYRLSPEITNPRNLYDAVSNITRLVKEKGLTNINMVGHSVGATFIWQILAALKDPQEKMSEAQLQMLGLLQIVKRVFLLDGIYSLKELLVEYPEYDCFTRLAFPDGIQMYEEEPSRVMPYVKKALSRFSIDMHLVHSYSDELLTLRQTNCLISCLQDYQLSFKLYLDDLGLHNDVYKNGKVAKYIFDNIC
Protocol: as §1

B1: CTD fused to the wildtype Kin28 (pMK500) (other)
chain: MKLLSSIEQACDICRLKKLKCSKEKPKCAKCLKNNWECRYSPKTKRSPLTRAHLTEVESRLERLEQLFLLIFPREDLDMILKMDSLQDIKALLTGLFVQDNVNKDAVTDRLASVETDMPLTLRQHRISATSSSEESSNKGQRQLTVSNYLFDDEDTPPNPKKEIELENLYFQGEFQYSPTSPSYSLTSPSYSPTSPSLTTMAMKVNMEYTKEKKVGEGTYAVVYLGCQHSTGRKIAIKEIKTSEFKDGLDMSAIREVKYLQEMQHPNVIELIDIFMAYDNLNLVLEFLPTDLEVVIKDKSILFTPADIKAWMLMTLRGVYHCHRNFILHRDLKPNNLLFSPDGQIKVADFGLARAIPAPHEILTSNVVTRWYRAPELLFGAKHYTSAIDIWSVGVIFAELMLRIPYLPGQNDVDQMEVTFRALGTPTDRDWPEVSSFMTYNKLQIYPPPSRDELRKRFIAASEYALDFMCGMLTMNPQKRWTAVQCLESDYFKELPPPSDPSSIKIRNVMAIPGGGRIFYPYDVPDYAGYPYDVPDYAGSYPYDVPDYAAQCGRSS
modifications: CTD phosphorylated at the fifth residue (Ser5) by the tethered wildtype Kin28
notes: also called CTD-Kin28 (wildtype); phosphorylated CTD
binding result [1]: binds | binding result [2]: binds | binding result [3]: binds | binding result [4]: binds | binding result [5]: binds

B2: CTD fused to the mutant Kin28 (pDG502) (other)
chain: MKLLSSIEQACDICRLKKLKCSKEKPKCAKCLKNNWECRYSPKTKRSPLTRAHLTEVESRLERLEQLFLLIFPREDLDMILKMDSLQDIKALLTGLFVQDNVNKDAVTDRLASVETDMPLTLRQHRISATSSSEESSNKGQRQLTVSNYLFDDEDTPPNPKKEIELENLYFQGEFQYSPTSPSYSLTSPSYSPTSPSLTTMAMKVNMEYTKEKKVGEGTYAVVYLGCQHSTGRKIAIKEIKTSEFKDGLDMSAIRQVKYLQEMQHPNVIELIDIFMAYDNLNLVLEFLPTDLEVVIKDKSILFTPADIKAWMLMTLRGVYHCHRNFILHRDLKPNNLLFSPDGQIKVADFGLARAIPAPHEILTSNVVTRWYRAPELLFGAKHYTSAIDIWSVGVIFAELMLRIPYLPGQNDVDQMEVTFRALGTPTDRDWPEVSSFMTYNKLQIYPPPSRDELRKRFIAASEYALDFMCGMLTMNPQKRWTAVQCLESDYFKELPPPSDPSSIKIRNVMAIPGGGRIFYPYDVPDYAGYPYDVPDYAGSYPYDVPDYAAQCGRSS
notes: also called CTD-Kin28 mutant
binding result [1]: no binding | binding result [2]: no binding | binding result [3]: no binding | binding result [4]: no binding | binding result [5]: no binding

B3: Kin28 alone bait (pMK498) (other)
chain: MKLLSSIEQACDICRLKKLKCSKEKPKCAKCLKNNWECRYSPKTKRSPLTRAHLTEVESRLERLEQLFLLIFPREDLDMILKMDSLQDIKALLTGLFVQDNVNKDAVTDRLASVETDMPLTLRQHRISATSSSEESSNKGQRQLTVSNYLFDDEDTPPNPKKEIELENLYFQGEFQLTTMAMKVNMEYTKEKKVGEGTYAVVYLGCQHSTGRKIAIKEIKTSEFKDGLDMSAIREVKYLQEMQHPNVIELIDIFMAYDNLNLVLEFLPTDLEVVIKDKSILFTPADIKAWMLMTLRGVYHCHRNFILHRDLKPNNLLFSPDGQIKVADFGLARAIPAPHEILTSNVVTRWYRAPELLFGAKHYTSAIDIWSVGVIFAELMLRIPYLPGQNDVDQMEVTFRALGTPTDRDWPEVSSFMTYNKLQIYPPPSRDELRKRFIAASEYALDFMCGMLTMNPQKRWTAVQCLESDYFKELPPPSDPSSIKIRNVMAIPGGGRIFYPYDVPDYAGYPYDVPDYAGSYPYDVPDYAAQCGRSS
binding result [1]: no binding | binding result [2]: no binding | binding result [3]: no binding | binding result [4]: no binding | binding result [5]: no binding
